Marks after values point to notes of the source that are not given here.
Tests used:
[1] = system: rat surgical fracture model; experiment: Bone healing model (cortical defect); type: in vivo; conditions: day 35; for BMC: mean ± SEM; for % Increase From Vehicle Control: BMC
Source text: The effect of wild type human mature BMP7 and variants thereof may be evaluated on bone regeneration and repair or bone healing in a rat surgical fracture model. Animals may be ovariectomized at 6 months of age and allowed to lose bone for two months before fracture surgery. Cortical defect surgery may be performed essentially as previously described (Komatsu, et al., Endocrinology, 150:1570-1579, 2009). Briefly, the procedure involves incising the skin over the lateral femoral aspect and blunt dissection of the quadriceps to expose the distal femoral diaphysis. Cortical defects may be then generated through the anterior and posterior cortexes using a Dremel tool (Robert Bosch Tool Corp, Gerlingen, Germany) equipped with a 2 mm orthopedic drill bit (Zimmer Inc, Warsaw, Ind.). The muscles may be subsequently repositioned, and the skin may be closed with tissue adhesive. Groups of animals may be treated with various amounts of wild type human mature BMP7 or variants thereof prepared in sodium citrate buffer pH 3.0 and adsorbed to Helistat type-1 collagen sponges in a volume of 50 μl. The treatments may be administered locally at the site of defect during surgery and treated for 35 days. A control group may receive the vehicle containing the same constituents in collagen sponge without the therapeutic proteins. In vivo fracture repair and bone mineral content (BMC) may be evaluated by quantitative computed tomography (QCT) using a GE Locus Ultra CT scanner (GE Healthcare, London, Ontario, Canada) as described previously (Komatsu et al., 2008).

[2] = system: rat primary articular chondrocytes (RPACs); experiment: Chondrogenesis assay (pellet culture); type: cell-based; conditions: 2 weeks in culture
Method: The effect of wild type human mature BMP7 and variants thereof may be evaluated for differentiation of chondrocytes in an in vitro model utilizing rat primary articular chondrocytes (RPACs). To obtain RPACs, articular cartilage may be isolated from 2-3 day old rats. The cartilage may be digested with 0.4% collagenase for 2 hours and then the resultant cells may be washed with phosphate buffered saline and subsequently cultured in media containing DMEM, 10% FBS and 1% penicillin/streptomycin in humidified air with 5% CO2 at 37° C.
To assess the chondrogenic differentiation, a pellet culture system may be used. Approximately 2×10^5 cells from passage 2-3 may be placed in 1.5 ml tubes and centrifuged at 500 g for 10 minutes. The pellets may be cultured at 37° C. with 5% CO2 in 500 μl of medium. […] The media may be replaced twice per week for 2 weeks. After 2 weeks in culture, the pellets may be harvested and macroscopic analysis was performed by stereomicroscopic procedures. The images may be analyzed and the pellet sizes may be calculated in a 2-dimensional image.

[3] = system: meniscal tear (MT) induced rat model of cartilage degeneration; experiment: Meniscal tear rat model of cartilage degeneration; type: in vivo
Source text: The effect of human mature BMP7 protein variant (SEQ ID NO: 8) may be evaluated using an osteoarthritic (OA) pain in the meniscal tear (MT) induced rat model of cartilage degeneration. Male Lewis rats (approximately 25 weeks of age) may be used for such a study. Briefly described, rats may be anesthetized with 3% isoflurane prior to surgery. The right knee may be flexed and a transverse medial incision is made along the proximal antero-medial aspect of the tibia exposing the medial […] ligament. The […] ligament and the joint capsule may be incised simultaneously freeing the tibial attachments of the medial meniscus. Approximately 3 mm of the meniscus may be freed from its attachment to the margin of the tibial plateau and the meniscus may be transected to simulate a complete tear. The incision may be closed with surgical glue.
The animals may be treated with wild type human mature BMP7 at a dose of 350 ng/knee or human mature BMP7 protein variant F9 (SEQ ID NO: 8) at two doses of 49 ng or 245 ng/knee in 50 μl phosphate buffered saline (PBS), pH 7.4. The treatment may be initiated 3 weeks after MT surgery and continued for […]. Animals may be administered weekly intra-articular injections of wild type human mature BMP7 or human mature BMP7 protein variant F9 (SEQ ID NO: 8) or vehicle at various doses for 5 weeks into the operated knee. Pain measurements may be made by incapacitance testing on days 18 (baseline), 25, 31, 42 and 53 post MT surgery using an incapacitance tester (Columbus Instruments International, Columbus, Ohio). Changes in hind paw weight distribution between the osteoarthritic (right) and contralateral control (left) limb may be utilized as an index of joint discomfort (measure of pain) in the osteoarthritic knee. Results may be presented as the difference in weight bearing between the contralateral control (left) and the osteoarthritic (right).

[4] = system: monosodium iodoacetate (MIA)-induced rat model of OA pain; experiment: MIA rat model of osteoarthritic pain; type: in vivo
Method: The effect of human mature BMP7 protein variant F9 (SEQ ID NO: 8) may be evaluated in the monosodium iodoacetate (MIA)-induced rat model of OA pain (Bove, et. al., Osteoarthritis and Cartilage, 2003, 11: 821-830).
Briefly stated, male Lewis rats aged 7-8 weeks at the time of MIA injection may be used for this study. For induction of osteoarthritis, the rats may be anesthesized with isoflurane and given a single intra-articular injection of 0.3 mg/50 μl MIA through the infrapatellar ligament of the right knee. The left contralateral control knee may be injected with 50 μl sterile saline. The animals are treated with wild type human mature BMP7 protein at a dose of 1.0 μg/knee and human mature BMP7 protein variant F9 (SEQ ID NO: 8) at 0.175 μg and 0.7 μg/knee via intra-articular injections on day 9 and 14 post-MIA.
Pain measurements may be made by incapacitance testing on days 17, 24, 31, 38, 45, 52, 58, and 66 post-MIA injection using an incapacitance tester (Columbus Instruments International, Columbus, Ohio). Changes in hind paw weight distribution between the osteoarthritic (right) and contralateral control (left) limb may be utilized as an index of joint discomfort (measure of pain) in the osteoarthritic knee. Results may be presented as the difference in weight bearing between the contralateral control (left) and the osteoarthritic (right).

[5] = 16.5 μg on collagen sponge at defect site

B1: Human mature BMP7 protein variant F9 (SEQ ID NO: 8): homodimer wherein each monomeric subunit has SEQ ID NO: 8 (Y65G/I86L/F93V/N110G/Y128W), disulfide linked (protein)
chain: STGSKQRSQNRSKTPKNQEALRMANVAENSSSDQRQACKKHELYVSFRDLGWQDWIIAPEGYAAGYCEGECAFPLNSYMNATNHALVQTLVHVINPETVPKPCCAPTQLGAISVLYFDDSSNVILKKWRNMVVRACGCH
modifications: homodimer, disulfide linked
- BMC ([1]; 2.0 μg on collagen sponge at defect site): 16.19 ± 1.09 mg
- BMC [1, 5]: 18.13 ± 2.29^a mg
- cortical area ([1]; 16.5 μg): significant increase
- % Increase From Vehicle Control ([1]; 2.0 μg): 114%
- % Increase From Vehicle Control ([1]; 16.5 μg): 128%
- Pellet Size ([2]; Treatment 0.014 nM): 0.67 ± 0.16 mm^2
- Pellet Size ([2]; Treatment 0.14 nM): 1.56 ± 0.46^a mm^2
- Pellet Size ([2]; Treatment 1.4 nM): 2.61 ± 0.18^a mm^2
- Difference in hind paw weight bearing ([3]; Treatment C, 49 ng/knee weekly intra-articular, Baseline (day 18 post MT surgery)): 52.48 ± 2.11 g
- Difference in hind paw weight bearing ([3]; Treatment C, 49 ng, Day 25): 49.96 ± 0.66 g
- Difference in hind paw weight bearing ([3]; Treatment C, 49 ng, Day 31): 49.52 ± 1.10^b g
- Difference in hind paw weight bearing ([3]; Treatment C, 49 ng, Day 42): 44.8 ± 3.04^b g
- Difference in hind paw weight bearing ([3]; Treatment C, 49 ng, Day 53): 45.70 ± 2.77 g
- Difference in hind paw weight bearing ([3]; Treatment D, 245 ng/knee weekly intra-articular, Baseline (day 18 post MT surgery)): 52.02 ± 2.19 g
- Difference in hind paw weight bearing ([3]; Treatment D, 245 ng, Day 25): 49.77 ± 1.00 g
- Difference in hind paw weight bearing ([3]; Treatment D, 245 ng, Day 31): 49.54 ± 2.77^b g
- Difference in hind paw weight bearing ([3]; Treatment D, 245 ng, Day 42): 42.37 ± 1.28^b g
- Difference in hind paw weight bearing ([3]; Treatment D, 245 ng, Day 53): 38.68 ± 1.68^b g
- Difference in hind paw weight bearing ([4]; 0.175 μg/knee intra-articular day 9 and 14, Day 17 post-MIA): 23.29 ± 1.31 g
- Difference in hind paw weight bearing ([4]; 0.175 μg/knee, Day 24): 24.32 ± 2.97 g
- Difference in hind paw weight bearing ([4]; 0.175 μg/knee, Day 31): 21.87 ± 2.14 g
- Difference in hind paw weight bearing ([4]; 0.175 μg/knee, Day 38): 20.82 ± 1.03^b g
- Difference in hind paw weight bearing ([4]; 0.175 μg/knee, Day 45): 19.44 ± 0.80 g
- Difference in hind paw weight bearing ([4]; 0.175 μg/knee, Day 52): 19.35 ± 0.77 ^b g
- Difference in hind paw weight bearing ([4]; 0.175 μg/knee, Day 58): 17.42 ± 3.16^b g
- Difference in hind paw weight bearing ([4]; 0.175 μg/knee, Day 66): 15.00 ± 1.84^b g
- Difference in hind paw weight bearing ([4]; 0.7 μg/knee intra-articular day 9 and 14, Day 17 post-MIA): 36.75 ± 6.45^b g
- Difference in hind paw weight bearing ([4]; 0.7 μg/knee, Day 24): 29.78 ± 8.39 g
- Difference in hind paw weight bearing ([4]; 0.7 μg/knee, Day 31): 26.62 ± 6.07 g
- Difference in hind paw weight bearing ([4]; 0.7 μg/knee, Day 38): 23.63 ± 0.90 g
- Difference in hind paw weight bearing ([4]; 0.7 μg/knee, Day 45): 21.75 ± 4.34 g
- Difference in hind paw weight bearing ([4]; 0.7 μg/knee, Day 52): 20.51 ± 3.03 g
- Difference in hind paw weight bearing ([4]; 0.7 μg/knee, Day 58): 16.72 ± 0.79^b g
- Difference in hind paw weight bearing ([4]; 0.7 μg/knee, Day 66): 13.06 ± 1.78^b g

B2: Wild type human mature BMP7 (SEQ ID NO: 2): dimer of two glycosylated, 139 amino acid disulfide-linked proteins of about 35 kDa, SEQ ID NO: 2 (protein, listed as Homo sapiens)
chain: STGSKQRSQNRSKTPKNQEALRMANVAENSSSDQRQACKKHELYVSFRDLGWQDWIIAPEGYAAYYCEGECAFPLNSYMNATNHAIVQTLVHFINPETVPKPCCAPTQLNAISVLYFDDSSNVILKKYRNMVVRACGCH
modifications: disulfide-linked glycosylated homodimer
- BMC [1, 5]: 16.25 ± 1.60 mg
- % Increase From Vehicle Control ([1]; 16.5 μg): 115%
- Pellet Size ([2]; Treatment 0.02 nM): 0.64 ± 0.15 mm^2
- Pellet Size ([2]; Treatment 0.2 nM): 0.70 ± 0.03 mm^2
- Pellet Size ([2]; Treatment 2 nM): 0.83 ± 0.13 mm^2
- Difference in hind paw weight bearing ([3]; Treatment B, 350 ng/knee weekly intra-articular, Baseline (day 18 post MT surgery)): 52.33 ± 2.45 g
- Difference in hind paw weight bearing ([3]; Treatment B, 350 ng, Day 25): 50.76 ± 1.09 g
- Difference in hind paw weight bearing ([3]; Treatment B, 350 ng, Day 31): 49.97 ± 1.10 g
- Difference in hind paw weight bearing ([3]; Treatment B, 350 ng, Day 42): 46.81 ± 1.34^b g
- Difference in hind paw weight bearing ([3]; Treatment B, 350 ng, Day 53): 47.77 ± 1.78 g
- Difference in hind paw weight bearing ([4]; 1.0 μg/knee intra-articular day 9 and 14, Day 17 post-MIA): 27.52 ± 2.81 g
- Difference in hind paw weight bearing ([4]; 1.0 μg/knee, Day 24): 26.05 ± 2.81 g
- Difference in hind paw weight bearing ([4]; 1.0 μg/knee, Day 31): 23.46 ± 1.23 g
- Difference in hind paw weight bearing ([4]; 1.0 μg/knee, Day 38): 22.68 ± 0.61 g
- Difference in hind paw weight bearing ([4]; 1.0 μg/knee, Day 45): 20.95 ± 0.87 g
- Difference in hind paw weight bearing ([4]; 1.0 μg/knee, Day 52): 20.37 ± 0.71 g
- Difference in hind paw weight bearing ([4]; 1.0 μg/knee, Day 58): 17.66 ± 1.79^b g
- Difference in hind paw weight bearing ([4]; 1.0 μg/knee, Day 66): 17.59 ± 2.68^b g

Source: patent US11466066B2, “Variants of human BMP7 protein” (ELI LILLY AND COMPANY, priority 2017, dated 2022)
